Data: patent publication US20140072613A1 (published 2014)

T1: DCAMKL2(h) (human, UniProt Q8N568 372-714, limits assumed)
T1 sequence (looked up): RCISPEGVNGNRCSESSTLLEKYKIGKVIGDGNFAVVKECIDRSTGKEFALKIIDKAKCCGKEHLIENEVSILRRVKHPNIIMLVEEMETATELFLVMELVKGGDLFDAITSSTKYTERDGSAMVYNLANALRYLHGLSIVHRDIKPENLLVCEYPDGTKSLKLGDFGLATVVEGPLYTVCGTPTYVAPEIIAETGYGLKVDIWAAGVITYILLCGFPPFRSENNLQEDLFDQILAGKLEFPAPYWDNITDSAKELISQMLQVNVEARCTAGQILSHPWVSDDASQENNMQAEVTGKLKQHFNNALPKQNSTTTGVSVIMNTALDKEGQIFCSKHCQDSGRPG

T2: PrKX(h) (human, UniProt P51817 1-358)
T2 sequence (looked up): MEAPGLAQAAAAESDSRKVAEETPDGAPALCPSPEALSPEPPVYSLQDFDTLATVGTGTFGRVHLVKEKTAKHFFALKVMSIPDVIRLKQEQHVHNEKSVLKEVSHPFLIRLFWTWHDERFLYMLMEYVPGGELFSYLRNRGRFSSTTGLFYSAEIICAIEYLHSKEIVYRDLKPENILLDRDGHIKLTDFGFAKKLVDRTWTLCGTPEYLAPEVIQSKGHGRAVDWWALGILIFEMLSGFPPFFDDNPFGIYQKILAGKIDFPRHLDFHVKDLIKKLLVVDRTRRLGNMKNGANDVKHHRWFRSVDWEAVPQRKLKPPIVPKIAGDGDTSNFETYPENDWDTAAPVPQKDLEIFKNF

T3: DRAK1(h) (human, UniProt Q9UEE5 1-414, limits assumed)
T3 sequence (looked up): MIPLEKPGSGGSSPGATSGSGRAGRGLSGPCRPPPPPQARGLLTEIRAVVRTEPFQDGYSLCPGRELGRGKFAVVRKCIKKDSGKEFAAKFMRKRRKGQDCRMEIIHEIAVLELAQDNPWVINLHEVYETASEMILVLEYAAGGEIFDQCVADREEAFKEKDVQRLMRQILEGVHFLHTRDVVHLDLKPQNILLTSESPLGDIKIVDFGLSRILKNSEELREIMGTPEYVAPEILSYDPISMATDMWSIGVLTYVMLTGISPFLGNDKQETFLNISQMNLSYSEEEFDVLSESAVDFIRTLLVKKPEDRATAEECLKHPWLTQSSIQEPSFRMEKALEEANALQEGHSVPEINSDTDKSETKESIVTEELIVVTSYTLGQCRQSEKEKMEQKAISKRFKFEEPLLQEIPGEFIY

T4: MKK7β(h) (human, UniProt O14733 1-419, limits assumed)
T4 sequence (looked up): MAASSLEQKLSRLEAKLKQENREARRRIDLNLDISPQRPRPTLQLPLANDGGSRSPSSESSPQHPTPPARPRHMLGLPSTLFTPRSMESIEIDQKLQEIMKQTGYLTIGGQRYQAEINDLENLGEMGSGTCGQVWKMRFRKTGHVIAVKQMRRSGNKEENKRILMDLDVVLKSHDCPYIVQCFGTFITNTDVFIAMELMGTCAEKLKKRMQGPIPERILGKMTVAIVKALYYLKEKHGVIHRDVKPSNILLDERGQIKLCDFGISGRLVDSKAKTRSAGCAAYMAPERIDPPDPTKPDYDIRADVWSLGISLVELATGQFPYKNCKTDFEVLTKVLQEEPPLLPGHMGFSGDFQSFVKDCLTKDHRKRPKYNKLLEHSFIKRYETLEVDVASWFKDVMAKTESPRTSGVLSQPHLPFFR

T5: Ron(h) (human, UniProt Q04912 983-1400, limits assumed)
T5 sequence (looked up): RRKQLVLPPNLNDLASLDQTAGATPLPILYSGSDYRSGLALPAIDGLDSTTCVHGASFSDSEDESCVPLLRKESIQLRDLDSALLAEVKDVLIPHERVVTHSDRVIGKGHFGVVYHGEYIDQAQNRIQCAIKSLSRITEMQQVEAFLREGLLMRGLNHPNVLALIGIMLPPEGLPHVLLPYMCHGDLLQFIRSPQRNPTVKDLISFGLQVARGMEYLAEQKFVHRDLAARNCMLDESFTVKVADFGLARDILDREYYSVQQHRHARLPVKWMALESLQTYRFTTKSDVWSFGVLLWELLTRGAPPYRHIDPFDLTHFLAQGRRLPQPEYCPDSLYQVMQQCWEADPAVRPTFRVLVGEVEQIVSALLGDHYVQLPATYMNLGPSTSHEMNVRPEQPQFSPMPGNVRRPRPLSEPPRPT


Assays:
Experiment in all cases: cell-based or functional assay
[1] = target: T1, DCAMKL2(h)
[2] = target: MARK1(h) (human, UniProt Q9P0L2 1-795, limits assumed)
Chain of MARK1(h) (Q9P0L2 whole entry): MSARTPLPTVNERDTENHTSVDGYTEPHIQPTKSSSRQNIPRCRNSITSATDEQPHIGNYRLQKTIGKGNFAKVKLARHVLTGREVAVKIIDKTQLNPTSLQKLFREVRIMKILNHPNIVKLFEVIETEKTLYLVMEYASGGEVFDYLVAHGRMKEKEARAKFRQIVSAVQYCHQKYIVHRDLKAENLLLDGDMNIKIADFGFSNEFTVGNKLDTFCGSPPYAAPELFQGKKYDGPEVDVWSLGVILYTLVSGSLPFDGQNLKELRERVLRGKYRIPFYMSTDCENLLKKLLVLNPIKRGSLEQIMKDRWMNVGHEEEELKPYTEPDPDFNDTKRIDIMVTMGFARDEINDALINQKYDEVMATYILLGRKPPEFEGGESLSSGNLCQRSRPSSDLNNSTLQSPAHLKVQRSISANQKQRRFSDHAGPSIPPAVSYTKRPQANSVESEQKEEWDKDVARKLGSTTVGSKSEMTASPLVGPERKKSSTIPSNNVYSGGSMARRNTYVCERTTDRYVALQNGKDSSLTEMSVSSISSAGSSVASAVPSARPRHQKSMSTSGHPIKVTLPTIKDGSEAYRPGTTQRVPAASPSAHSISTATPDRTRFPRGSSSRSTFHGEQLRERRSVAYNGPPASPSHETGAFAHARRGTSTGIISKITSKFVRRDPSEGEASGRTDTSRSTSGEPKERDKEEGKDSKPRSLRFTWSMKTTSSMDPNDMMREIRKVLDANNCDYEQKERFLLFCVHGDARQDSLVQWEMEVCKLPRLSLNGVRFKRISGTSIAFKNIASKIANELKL

[3] = target: T2, PrKX(h)
[4] = target: FGFR3(h) (human, UniProt P22607 397-806)
Chain of FGFR3(h) (P22607 397-806 limits assumed): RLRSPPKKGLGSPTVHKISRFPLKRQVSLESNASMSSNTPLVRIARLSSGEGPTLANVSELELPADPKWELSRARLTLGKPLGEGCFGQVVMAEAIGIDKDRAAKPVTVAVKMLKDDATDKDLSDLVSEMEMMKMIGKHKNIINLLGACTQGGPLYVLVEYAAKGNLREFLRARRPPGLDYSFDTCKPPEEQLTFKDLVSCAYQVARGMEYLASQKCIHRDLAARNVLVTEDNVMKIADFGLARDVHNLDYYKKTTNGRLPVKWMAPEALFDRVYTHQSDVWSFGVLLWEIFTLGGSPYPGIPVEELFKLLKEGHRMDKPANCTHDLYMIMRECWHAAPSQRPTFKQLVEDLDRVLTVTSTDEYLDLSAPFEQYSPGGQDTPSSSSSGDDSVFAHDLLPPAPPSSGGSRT

[5] = target: T3, DRAK1(h)
[6] = target: SAPK2a(h) (human, UniProt Q16539 1-360)
Chain of SAPK2a(h) (Q16539 whole entry): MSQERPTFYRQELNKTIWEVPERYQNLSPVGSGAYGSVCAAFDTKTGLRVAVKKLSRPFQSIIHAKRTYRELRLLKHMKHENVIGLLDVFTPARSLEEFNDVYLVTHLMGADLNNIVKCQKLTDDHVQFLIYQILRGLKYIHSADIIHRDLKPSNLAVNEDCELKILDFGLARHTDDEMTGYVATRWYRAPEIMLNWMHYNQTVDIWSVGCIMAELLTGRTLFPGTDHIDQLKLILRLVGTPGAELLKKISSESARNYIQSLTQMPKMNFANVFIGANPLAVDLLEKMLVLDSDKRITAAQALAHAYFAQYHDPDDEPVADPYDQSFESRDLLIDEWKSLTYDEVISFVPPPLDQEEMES

[7] = target: ErbB4(h) (human, UniProt Q15303 706-991, limits assumed)
Chain of ErbB4(h) (Q15303 706-991 limits assumed): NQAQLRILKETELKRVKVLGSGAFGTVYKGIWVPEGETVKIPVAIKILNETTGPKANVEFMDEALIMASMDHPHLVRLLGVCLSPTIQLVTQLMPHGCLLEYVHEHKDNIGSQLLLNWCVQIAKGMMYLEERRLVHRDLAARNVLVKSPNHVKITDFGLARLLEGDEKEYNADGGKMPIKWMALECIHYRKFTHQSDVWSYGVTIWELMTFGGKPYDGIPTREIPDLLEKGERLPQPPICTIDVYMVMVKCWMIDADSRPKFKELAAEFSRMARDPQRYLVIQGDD

[8] = target: cKit(h) (human, UniProt P10721 544-976)
Chain of cKit(h) (P10721 544-976): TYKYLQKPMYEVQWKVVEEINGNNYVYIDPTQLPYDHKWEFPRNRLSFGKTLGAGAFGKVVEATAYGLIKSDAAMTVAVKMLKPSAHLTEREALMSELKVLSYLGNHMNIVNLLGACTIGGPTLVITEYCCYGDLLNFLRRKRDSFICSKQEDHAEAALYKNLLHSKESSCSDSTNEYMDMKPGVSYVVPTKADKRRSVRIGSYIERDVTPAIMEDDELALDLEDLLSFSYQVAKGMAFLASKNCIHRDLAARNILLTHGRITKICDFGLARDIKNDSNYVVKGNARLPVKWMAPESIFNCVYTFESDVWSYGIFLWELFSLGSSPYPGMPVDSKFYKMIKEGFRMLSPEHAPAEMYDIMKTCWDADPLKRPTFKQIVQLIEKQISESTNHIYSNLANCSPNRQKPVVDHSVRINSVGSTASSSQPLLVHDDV

[9] = target: Fyn(h) (human, UniProt P06241 1-537)
Chain of Fyn(h) (P06241 whole entry): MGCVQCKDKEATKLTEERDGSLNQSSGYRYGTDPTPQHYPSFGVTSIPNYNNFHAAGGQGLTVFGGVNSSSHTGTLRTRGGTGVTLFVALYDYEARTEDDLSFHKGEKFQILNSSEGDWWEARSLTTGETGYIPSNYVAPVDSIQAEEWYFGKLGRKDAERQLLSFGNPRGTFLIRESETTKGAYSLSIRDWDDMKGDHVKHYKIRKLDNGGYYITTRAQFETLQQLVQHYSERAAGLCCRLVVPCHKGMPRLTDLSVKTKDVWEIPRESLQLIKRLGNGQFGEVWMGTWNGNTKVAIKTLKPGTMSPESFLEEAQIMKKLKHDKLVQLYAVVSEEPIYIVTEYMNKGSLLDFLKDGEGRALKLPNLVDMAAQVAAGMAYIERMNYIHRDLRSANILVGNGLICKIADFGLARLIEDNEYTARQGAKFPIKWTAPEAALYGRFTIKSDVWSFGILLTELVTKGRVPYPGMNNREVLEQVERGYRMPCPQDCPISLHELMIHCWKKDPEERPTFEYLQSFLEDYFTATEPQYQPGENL

[10] = target: Abl(Y253F)(h) (human, UniProt P00519 27-1130, limits assumed)
Chain of Abl(Y253F)(h) (P00519 27-1130 Y253F limits assumed): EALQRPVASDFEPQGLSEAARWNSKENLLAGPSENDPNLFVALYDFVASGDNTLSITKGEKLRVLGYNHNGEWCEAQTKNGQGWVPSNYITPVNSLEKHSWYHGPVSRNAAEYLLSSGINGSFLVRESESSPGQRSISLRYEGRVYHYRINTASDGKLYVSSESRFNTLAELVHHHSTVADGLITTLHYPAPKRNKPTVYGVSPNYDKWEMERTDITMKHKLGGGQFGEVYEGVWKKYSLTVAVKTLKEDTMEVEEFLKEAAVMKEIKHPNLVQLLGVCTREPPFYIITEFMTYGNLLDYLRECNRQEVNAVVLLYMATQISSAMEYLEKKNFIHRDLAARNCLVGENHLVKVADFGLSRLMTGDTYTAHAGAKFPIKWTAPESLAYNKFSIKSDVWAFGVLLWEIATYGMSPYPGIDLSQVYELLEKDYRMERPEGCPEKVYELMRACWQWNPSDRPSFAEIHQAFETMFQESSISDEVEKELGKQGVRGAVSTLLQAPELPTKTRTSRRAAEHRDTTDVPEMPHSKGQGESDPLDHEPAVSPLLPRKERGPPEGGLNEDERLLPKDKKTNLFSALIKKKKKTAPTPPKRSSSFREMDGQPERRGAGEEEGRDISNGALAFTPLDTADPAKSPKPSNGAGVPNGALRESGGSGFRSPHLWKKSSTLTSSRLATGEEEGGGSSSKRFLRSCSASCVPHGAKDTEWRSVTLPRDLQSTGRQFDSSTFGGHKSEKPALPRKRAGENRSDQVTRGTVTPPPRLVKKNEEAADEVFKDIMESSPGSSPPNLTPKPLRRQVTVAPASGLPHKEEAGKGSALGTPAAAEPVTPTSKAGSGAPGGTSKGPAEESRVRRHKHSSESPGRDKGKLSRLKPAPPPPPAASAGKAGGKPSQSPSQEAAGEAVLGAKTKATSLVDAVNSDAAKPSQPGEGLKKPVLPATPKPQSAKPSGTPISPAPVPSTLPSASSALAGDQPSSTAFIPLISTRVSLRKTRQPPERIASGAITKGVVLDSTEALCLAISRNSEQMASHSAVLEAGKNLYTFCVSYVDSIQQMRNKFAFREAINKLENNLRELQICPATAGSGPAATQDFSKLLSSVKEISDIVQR

[11] = target: cKit(D816V)(h) (human, UniProt P10721 544-976)
Chain of cKit(D816V)(h) (P10721 544-976 D816V): as the sequence (P10721 544-976) above, with D273V counted along it

[12] = target: CDK3/cyclinE(h) (human, UniProt Q00526 1-305; P24864 1-410)
[13] = target: PKBα(h) (human, UniProt P31749 1-480, limits assumed)
Chain of PKBα(h) (P31749 whole entry): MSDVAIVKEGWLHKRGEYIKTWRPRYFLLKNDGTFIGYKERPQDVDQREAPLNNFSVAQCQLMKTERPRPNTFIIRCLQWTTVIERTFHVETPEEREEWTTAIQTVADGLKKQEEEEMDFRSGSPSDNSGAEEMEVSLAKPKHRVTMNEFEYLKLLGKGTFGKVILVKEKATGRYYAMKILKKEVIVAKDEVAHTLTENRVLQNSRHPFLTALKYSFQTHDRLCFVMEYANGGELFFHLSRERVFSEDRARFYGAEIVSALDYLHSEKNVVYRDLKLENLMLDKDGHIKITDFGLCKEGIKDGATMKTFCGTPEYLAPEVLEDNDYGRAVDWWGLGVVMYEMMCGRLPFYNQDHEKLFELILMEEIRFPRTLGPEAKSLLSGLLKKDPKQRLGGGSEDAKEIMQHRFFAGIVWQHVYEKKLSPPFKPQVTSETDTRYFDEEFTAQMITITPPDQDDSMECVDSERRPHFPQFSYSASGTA

[14] = target: T4, MKK7β(h)
[15] = target: Tie2(Y897S)(h) (human, UniProt Q02763 771-1124, limits assumed)
Chain of Tie2(Y897S)(h) (Q02763 771-1124 Y897S limits assumed): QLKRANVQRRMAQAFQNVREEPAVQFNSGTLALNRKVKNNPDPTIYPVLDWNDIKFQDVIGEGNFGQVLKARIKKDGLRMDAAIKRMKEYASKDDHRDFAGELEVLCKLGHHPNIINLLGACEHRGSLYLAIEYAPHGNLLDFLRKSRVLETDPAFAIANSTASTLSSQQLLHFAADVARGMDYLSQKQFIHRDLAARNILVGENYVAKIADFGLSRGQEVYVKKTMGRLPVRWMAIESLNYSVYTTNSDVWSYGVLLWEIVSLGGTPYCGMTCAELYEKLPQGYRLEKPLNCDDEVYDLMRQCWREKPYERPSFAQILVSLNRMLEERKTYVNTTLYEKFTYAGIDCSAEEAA

[16] = target: T5, Ron(h)

Binder	% activity, 100 µM [1]	% activity, 100 µM [2]	% activity, 100 µM [3]	% activity, 100 µM [4]	% activity, 100 µM [5]	% activity, 100 µM [6]	% activity, 100 µM [7]	% activity, 100 µM [8]	% activity, 100 µM [9]	% activity, 100 µM [10]	% activity, 100 µM [11]	% activity, 100 µM [12]	% activity, 100 µM [13]	% activity, 100 µM [14]	% activity, 100 µM [15]	% activity, 100 µM [16]
FAKLAARLYRKALARQLGVAA [MMI-0300]	81%	132%	61%	102%	14%	90%	40%	53%	74%	86%	60%	94%	57%	100%	83%	93%
KAFAKLAARLYRKALARQLGVAA [MMI-0400]	70%	120%	76%	0%	14%	85%	0%	43%	54%	78%	35%	92%	67%	94%	87%	79%
